From patent US20050287608A1
Numbering of substitutions follows the chain as printed. Numbers in names are those of the source. Blank lines part the entries; values can stand above or below the binder they belong to.

Tests used:
[1] = target: ubiquitinated proteins of yeast cells; test: Flag purification from yeast cells, anti-Ub immunoblot
[2] = target: ubiquitinated proteins of yeast cells; test: Flag-Rad23 precipitation from yeast extracts, anti-Ub immunoblot, adjusted for the amount of Flag-Rad23 precipitated

decrease of binding, against Flag-Rad23 [1]: 20%
B1: Flag-rad23^uba2 (yeast Rad23 L392A, amino-terminal Flag epitope) (protein, yeast (Saccharomyces cerevisiae), UniProt P32628 1-398, looked up, not shown: small tags and cut ends)
chain: MVSLTFKNFKKEKVPLDLEPSNTILETKTKLAQSISCEESQIKLIYSGKVLQDSKTVSECGLKDGDQVVFMVSQKKSTKTKVTEPPIAPESATTPGRENSTEASPSTDASAAPAATAPEGSQPQEEQTATTERTESASTPGFVVGTERNETIERIMEMGYQREEVERALRAAFNNPDRAVEYLLMGIPENLRQPEPQQQTAAAAEQPSTAATTAEQPAEDDLFAQAAQGGNASSGALGTTGGATDAAQGGPPGSIGLTVEDLLSLRQVVSGNPEALAPLLENISARYPQLREHIMANPEVFVSMLLEAVGDNMQDVMEGADDMVEGEDIEVTGEAAAAGLGQGEGEGSFQVDYTPEDDQAISRLCELGFERDLVIQVYFACDKNEEAAANIAFSDHAD

fold increase of the interaction after treatment with 4-NQO, against untreated cells [2]: 2 fold
B2: Flag-Rad23 (yeast Rad23 with an amino-terminal Flag epitope) (protein, yeast (Saccharomyces cerevisiae), UniProt P32628 1-398, looked up, not shown: small tags and cut ends)
chain: B1 chain with A392L

interaction remaining, compared to the wildtype protein [1]: 1%
B3: Flag-rad23^uba1uba2 (yeast Rad23 with mutations in both UBA domains, amino-terminal Flag epitope) (protein, yeast (Saccharomyces cerevisiae), UniProt P32628 1-398, looked up, not shown: small tags and cut ends)
chain: B1 chain with L183A
